Consider three molecules from publication PMC3247018 (Journal of molecular biology, 2011).

B2: bacteriophage lambda gpE major capsid protein (natural protein, UniProt P03713 1-341, looked up)
chain: MSMYTTAQLLAANEQKFKFDPLFLRLFFRESYPFTTEKVYLSQIPGLVNMALYVSPIVSGEVIRSRGGSTSEFTPGYVKPKHEVNPQMTLRRLPDEDPQNLADPAYRRRRIIMQNMRDEELAIAQVEEMQAVSAVLKGKYTMTGEAFDPVEVDMGRSEENNITQSGGTEWSKRDKSTYDPTDDIEAYALNASGVVNIIVFDPKGWALFRSFKAVKEKLDTRRGSNSELETAVKDLGKAVSYKGMYGDVAIVVYSGQYVENGVKKNFLPDNTMVLGNTQARGLRTYGCIQDADAQREGINASARYPKNWVTTGDPAREFTMIQSAPLMLLADPDEFVSVQLA

For series [1], the target named is bacteriophage lambda gpNu3 scaffolding protein (bacteriophage lambda) (UniProt P03711). In words: AUC.
Series [2] concerns the target B2. In words: SEC.
The series “SEC” deals with the molecule itself. Kind of series: SEC.

One may read the stoichiometry N as a count of units in the complex or per binding partner. On to “bacteriophage lambda gpNu3 scaffolding protein (from UniProt P03711-2 1-131) (natural protein)”, for which the stoichiometry N in series [1] was 2.

B1: bacteriophage lambda gpNu3 scaffolding protein (natural protein, UniProt P03711-2 1-131, looked up)
chain: MTKETQSTTVSATASQADVTDVVPATEGENASAAQPDVNAQITAAVAAENSRIMGILNCEEAHGREEQARVLAETPGMTVKTARRILAAAPQSAQARSDTALDRLMQGAPAPLAAGNPASDAVNDLLNTPV
As to B1, the binding result in series [2] is reported as “binds”.
Take B2: the binding result in “SEC” was “binds”.
